# Columns and labels:
# [1] = biological target: human antigen (TRBV9 family beta-chain of the human T cell receptor), immobilized on AR2G sensors (human); assay: BLI, OctetRed 96, antigen immobilized on AR2G sensors, antibody in solution, 1:1 global model
# [2] = biological target: membrane TCR belonging to the TRBV9 family on human peripheral blood T lymphocytes (human); assay: flow cytometry sorting of donor T lymphocytes with FITC-labelled MA-043 (100 ng/ml), then sequencing of TCR beta chains of the sorted cells
# Sequence of membrane TCR belonging to the TRBV9 family on human peripheral blood T lymphocytes (human) (A0A0B4J1U6 22-114): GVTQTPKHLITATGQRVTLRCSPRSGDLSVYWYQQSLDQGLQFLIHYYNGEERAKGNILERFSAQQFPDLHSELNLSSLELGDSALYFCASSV
binder,measurement,setting,value
"monoclonal antibody MA-043 (antibody, V domains shown) VH: QVQLVQSGPELKKPGESVKVSCKASGYTFTDYLVHWVRQAPGKGLEWMGWINTYTGTPTYADDFEGRFVFSLDTSASTANLQICSLKNEDTATYYCARSWRRGLRGIGFDYWGQGTLVTVSS VL: DIQMTQSPYSLSASVGDRVTITCKASKSINKYLAWFQQKPGKPNKLLIYDGSTLQSGVPSRFSGSGSGTDFTLTISSLEPEDFATYYCQQHNEYPPTFGQGTKLEIKR",Kd,[1],< 1 pM
same,koff,[1],< 1e-07 s⁻¹
same,kon,[1],329000 M⁻¹ s⁻¹
same,enrichment of the sorted library with sequences encoded by the TRBV9 gene segment,[2],91%

# — patent publication US20220112286A1
